Laboratory results: patent US20250215100A1 (HARBOUR BIOMED SHANGHAI, published 2025)

B1: PR006239 (antibody, human IgG1, kappa)
heavy: QVQLVQSGAEVKKPGASVKVSCKASGYTFAGYYMYWVRQAPGQGLEWMGWINPDSGAPTYAQKFQGRVTMTRDTSISTAYMELSRLRSDDTAVYYCAREKIYYGSGNYYPSFDYWGQGTLVTVSSASTKGPSVFPLAPSSKSTSGGTAALGCLVKDYFPEPVTVSWNSGALTSGVHTFPAVLQSSGLYSLSSVVTVPSSSLGTQTYICNVNHKPSNTKVDKKVEPKSCDKTHTCPPCPAPEAAGAPSVFLFPPKPKDTLMISRTPEVTCVVVDVSHEDPEVKFNWYVDGVEVHNAKTKPREEQYNSTYRVVSVLTVLHQDWLNGKEYKCKVSNKALPAPIEKTISKAKGQPREPQVYTLPPSREEMTKNQVSLTCLVKGFYPSDIAVEWESNGQPENNYKTTPPVLDSDGSFFLYSKLTVDKSRWQQGNVFSCSVMHEALHNHYTQKSLSLSPGK
light: DIQLTQSPSFLSASVGDRVTITCRASQGISSYLAWYQQKPGKAPKLLIYAASTLQSGVPSRFSGSGSGTEFTLTISSLQPEDFATYYCQQLNSYPWTFGQGTKVEIKRTVAAPSVFIFPPSDEQLKSGTASVVCLLNNFYPREAKVQWKVDNALQSGNSQESVTEQDSKDSTYSLSSTLTLSKADYEKHKVYACEVTHQGLSSPVTKSFNRGEC
notes: Variable regions of PR003379 on human IgG1 with L234A, L235A, G237A; no mutation in the variable region
B2: PR006497 (antibody, human IgG1, kappa, V domains shown)
VH: QVQLVQSGAEVKKPGASVKVSCKASGYTFAGYYMYWVRQAPGQGLEWMGWINPDSGAPTYAQKFQGRVTMTRDTSISTAYMELSRLRSDDTAVYYCAREKIYYGSGNYYPSFDYWGQGTLVTVSS
VL: DIQLTQSPSFLSASVGDRVTITCRASQGISSYLAWYQQKPGKAPKLLIYAASTLQSGVPSRFSGSGSGTEFTLTISSLQPEDFATYYCQQLYSYPWTFGQGTKVEIKR
notes: PR003379 variant L:N92Y; human IgG1 L234A, L235A, G237A
B3: PR006502 (antibody, human IgG1, kappa, V domains shown)
VH: QVQLVQSGAEVKKPGASVKVSCKASGYTFAGYYMYWVRQAPGQGLEWMGWINPDSGAPTYAQKFQGRVTMTRDTSISTAYMELSRLRSDDTAVYYCAREKIYYGSGNYYPSFDYWGQGTLVTVSS
VL: DIQLTQSPSFLSASVGDRVTITCRASQGISSYLAWYQQKPGKAPKLLIYAASTLQSGVPSRFSGSGSGTEFTLTISSLQPEDFATYYCQQLDSYPWTFGQGTKVEIKR
notes: PR003379 variant L:N92D; human IgG1 L234A, L235A, G237A
B4: PR006498 (antibody, human IgG1, kappa, V domains shown)
VH: QVQLVQSGAEVKKPGASVKVSCKASGYTFAGYYMYWVRQAPGQGLEWMGWINPDSGAPTYAQKFQGRVTMTRDTSISTAYMELSRLRSDDTAVYYCAREKIYYGSGNYYPSFDYWGQGTLVTVSS
VL: DIQLTQSPSFLSASVGDRVTITCRASQGISSYLAWYQQKPGKAPKLLIYAASTLQSGVPSRFSGSGSGTEFTLTISSLQPEDFATYYCQQLISYPWTFGQGTKVEIKR
notes: PR003379 variant L:N92I; human IgG1 L234A, L235A, G237A
B5: PR006495 (antibody, human IgG1, kappa, V domains shown)
VH: QVQLVQSGAEVKKPGASVKVSCKASGYTFAGYYMYWVRQAPGQGLEWMGWINPDSGAPTYAQKFQGRVTMTRDTSISTAYMELSRLRSDDTAVYYCAREKIYYGSGNYYPSFDYWGQGTLVTVSS
VL: DIQLTQSPSFLSASVGDRVTITCRASQGISSYLAWYQQKPGKAPKLLIYAASTLQSGVPSRFSGSGSGTEFTLTISSLQPEDFATYYCQQLASYPWTFGQGTKVEIKR
notes: PR003379 variant L:N92A; human IgG1 L234A, L235A, G237A
B6: PR006496 (antibody, human IgG1, kappa, V domains shown)
VH: QVQLVQSGAEVKKPGASVKVSCKASGYTFAGYYMYWVRQAPGQGLEWMGWINPDSGAPTYAQKFQGRVTMTRDTSISTAYMELSRLRSDDTAVYYCAREKIYYGSGNYYPSFDYWGQGTLVTVSS
VL: DIQLTQSPSFLSASVGDRVTITCRASQGISSYLAWYQQKPGKAPKLLIYAASTLQSGVPSRFSGSGSGTEFTLTISSLQPEDFATYYCQQLFSYPWTFGQGTKVEIKR
notes: PR003379 variant L:N92F; human IgG1 L234A, L235A, G237A
B7: PR006504 (antibody, human IgG1, kappa, V domains shown)
VH: QVQLVQSGAEVKKPGASVKVSCKASGYTFAGYYMYWVRQAPGQGLEWMGWINPDSGAPTYAQKFQGRVTMTRDTSISTAYMELSRLRSDDTAVYYCAREKIYYGSGNYYPSFDYWGQGTLVTVSS
VL: DIQLTQSPSFLSASVGDRVTITCRASQGISSYLAWYQQKPGKAPKLLIYAASTLQSGVPSRFSGSGSGTEFTLTISSLQPEDFATYYCQQLVSYPWTFGQGTKVEIKR
notes: PR003379 variant L:N92V; human IgG1 L234A, L235A, G237A
B8: PR006499 (antibody, human IgG1, kappa, V domains shown)
VH: QVQLVQSGAEVKKPGASVKVSCKASGYTFAGYYMYWVRQAPGQGLEWMGWINPDSGAPTYAQKFQGRVTMTRDTSISTAYMELSRLRSDDTAVYYCAREKIYYGSGNYYPSFDYWGQGTLVTVSS
VL: DIQLTQSPSFLSASVGDRVTITCRASQGISSYLAWYQQKPGKAPKLLIYAASTLQSGVPSRFSGSGSGTEFTLTISSLQPEDFATYYCQQLWSYPWTFGQGTKVEIKR
notes: PR003379 variant L:N92W; human IgG1 L234A, L235A, G237A
B9: PR006500 (antibody, human IgG1, kappa, V domains shown)
VH: QVQLVQSGAEVKKPGASVKVSCKASGYTFAGYYMYWVRQAPGQGLEWMGWINPDSGAPTYAQKFQGRVTMTRDTSISTAYMELSRLRSDDTAVYYCAREKIYYGSGNYYPSFDYWGQGTLVTVSS
VL: DIQLTQSPSFLSASVGDRVTITCRASQGISSYLAWYQQKPGKAPKLLIYAASTLQSGVPSRFSGSGSGTEFTLTISSLQPEDFATYYCQQLMSYPWTFGQGTKVEIKR
notes: PR003379 variant L:N92M; human IgG1 L234A, L235A, G237A

Legend:
[1] = biological target: T1, human CD40 on cells (human, UniProt P25942 21-277); assay: FACS, Raji cells
T1 construct: whole, on cells; The cell line used is named in each row's assay; also called hCD40; TNFRSF5
Text: (§1) Flow cytometry (FACS) was used to detect the binding ability of the CD40 antibody to cells, such as, CHO-K1/hCD40 highly expressing human CD40 (constructed by Beijing Kyinno Biotechnology), CHO-K1/cyCD40 highly expressing cynomolgus monkey CD40 (constructed by Beijing Kyinno Biotechnology) and lymphoma cell highly expressing human CD40, Raji (ATCC, #CCL-86). Specifically, the cells were digested and resuspended with complete medium (F-12K for CHO-K1 cells; and RPMI-1640 for Raji cells); and the cells were adjusted to a cell density of 1×10⁶ cells/mL. The cells were seeded in a 96-well V-bottom plate (Corning, #3894) at 100 μL/well, and the antigen binding protein to be tested at 2x final concentration was then added at 100 μL/well and mixed evenly, with the highest final concentration of the antigen binding protein of 300 nM, a total of 8 concentrations, and 5-fold concentration gradient dilution. hIgG (Crownbio, #C0002) was used as a negative control, and the positive control molecule was the molecule in Table 1-5. The cells were incubated at 4° C. for 1 hours in the dark. After the incubation, the cells were rinsed twice by adding pre-chilled PBS at 100 μL/well, and centrifuged at 500 g at 4° C. for 5 minutes, and the supernatant was discarded. Then, a fluorescent secondary antibody (goat anti-human IgG (H+L) secondary antibody, Alexa Fluor® 488 conjugate, Invitrogen, #A11013, 1:1000 dilution) was added at 100 µL/well, and the cells were incubated at 4° C. for 30 minutes in the dark. The cells were washed twice with pre-chilled PBS at 200 μL/well, and centrifuged at 500 g at 4° C. for 5 minutes, and the supernatant was discarded. Finally, the cells were resuspended in pre-chilled PBS at 200 μL/well. The fluorescence signal values were read using a BD FACS CANTOII flow cytometer or ACEA NovoCyte flow cytometer, and the data were processed and analyzed using FlowJo v10 software (FlowJo, LLC).
(§2) Data processing and graphical analysis were performed using GraphPad Prism 8 software. The binding curve of the antibody to the target cell and parameters, such as EC50 value were obtained by four-parameter nonlinear fitting.

[2] = biological target: T1, human CD40 on cells; assay: cell-based or functional assay
[3] = biological target: T1, human CD40 on cells; assay: FACS, CHO-K1/hCD40 cells
Text: as §1, §2

[4] = biological target: T2, cynomolgus monkey CD40 on cells (cynomolgus monkey, UniProt G7PG38 21-278); assay: FACS, CHO-K1/cyCD40 cells
T2 construct: also called cyCD40; CHO-K1/cyCD40
Text: as §1, §2

T2 sequence (G7PG38 entry or part of it limits assumed): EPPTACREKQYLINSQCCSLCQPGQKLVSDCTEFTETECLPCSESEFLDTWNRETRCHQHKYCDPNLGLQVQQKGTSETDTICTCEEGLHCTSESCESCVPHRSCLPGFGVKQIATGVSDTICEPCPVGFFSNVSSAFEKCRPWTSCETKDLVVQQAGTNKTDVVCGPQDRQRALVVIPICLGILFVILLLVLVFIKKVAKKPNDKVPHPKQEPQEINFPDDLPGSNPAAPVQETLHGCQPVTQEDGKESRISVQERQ
T1 sequence (P25942 21-277): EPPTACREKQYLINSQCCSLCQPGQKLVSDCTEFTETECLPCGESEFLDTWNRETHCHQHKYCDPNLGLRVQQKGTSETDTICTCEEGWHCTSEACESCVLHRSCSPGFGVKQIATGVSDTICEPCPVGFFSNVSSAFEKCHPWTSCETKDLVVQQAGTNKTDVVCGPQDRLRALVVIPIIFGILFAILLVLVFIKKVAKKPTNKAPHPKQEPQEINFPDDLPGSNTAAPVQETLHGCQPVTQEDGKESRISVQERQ

| Binder | EC50 [1] [nM] | Maximum MFI [1] [MFI] | EC50 (nM), crosslinked, HEK293-hCD40-NFkB reporter [2] [nM] | EC50 (nM), uncrosslinked, HEK293-hCD40-NFkB reporter [2] [nM] | Fold (EC50 in the absence of crosslinking/EC50 in the presence of crosslinking) [2] [fold] | Maximum fold (fold), crosslinked [2] [fold] | Maximum fold (fold), uncrosslinked [2] [fold] | EC50 [3] [nM] | Maximum MFI [3] [MFI] | EC50 [4] [nM] | Maximum MFI [4] [MFI] |
| --- | --- | --- | --- | --- | --- | --- | --- | --- | --- | --- | --- |
| B1 | 0.332 | 9050 | 0.098 | 0.173 | 1.77 | 5.76 | 4.58 | 6.67 | 88600 | 4.41 | 51800 |
| B2 | 0.252 | 9200 | 0.158 | 0.479 | 3.03 | 4.77 | 4.61 | 5.09 | 92300 | 3.54 | 51700 |
| B3 | 0.287 | 9040 | 0.17 | 0.321 | 1.88 | 4.95 | 4.63 | 4.55 | 88500 | 3.96 | 47700 |
| B4 | 0.344 | 8980 | 0.196 | 0.462 | 2.36 | 5.53 | 4.4 | 4.97 | 77700 | 4.04 | 47300 |
| B5 | 0.356 | 8870 | 0.109 | 0.905 | 8.28 | 5.54 | 4.92 | 4.9 | 79400 | 4.41 | 48000 |
| B6 | 0.277 | 9300 | 0.217 | 0.43 | 1.98 | 5.03 | 4.43 | 4.8 | 88200 | 3.5 | 49700 |
| B7 | 0.35 | 12200 | 0.157 | 0.708 | 4.5 | 5.21 | 4.7 | 4.87 | 86000 | 3.71 | 51000 |
| B8 | 0.301 | 8980 | 0.405 | 1.04 | 2.58 | 5.28 | 3.92 | 4.65 | 84200 | 3.2 | 49800 |
| B9 | 0.351 | 8980 | 0.169 | 0.301 | 1.78 | 5.55 | 4.33 | 5.01 | 85900 | 4.4 | 48500 |
